Laboratory results reported in US20240376170A1 (BRIGHT PEAK THERAPEUTICS, published 2024).
Where “and” joins values, the source holds several entries; their conditions need not be identical. Identical values can stand only once. One block for each binder: values may come before it. Primed or numbered codes have the meaning given here. [ ]: non-standard residue; d: D form. Ygp = O-(8x polyethylene glycol-amino)-tyrosine (Tyr, amino-capped PEG8); Yn3 = O-(9x polyethylene glycol-azido)-tyrosine (Tyr, azide-capped PEG9); Ygp(7) = Tyr with amino-capped PEG8, O-(PEG8-amino)-tyrosine; Yn3(7) = Tyr with azide-capped PEG9, O-(PEG9-azido)-tyrosine; Ygp″ = O-(8x polyethylene glycol-amino)-tyrosine; Yn3″ = O-(9x polyethylene glycol-azido)-tyrosine; Ygp(3) = O-(PEG8-amino)-tyrosine; Yn3(3) = O-(PEG9-azido)-tyrosine; hSer = N[C@@H](CCO)C(=O)O; Nle = CCCC[C@H](N)C(=O)O; Dab = NCC[C@H](N)C(=O)O

Tests used:
[1] = target: T1, IL-2 receptor βγ complex on C57BL/6 mouse splenocytes (mouse, UniProt P16297 27-539; P34902 23-369); assay: cell-based or functional assay
T1 sequence (looked up) 1: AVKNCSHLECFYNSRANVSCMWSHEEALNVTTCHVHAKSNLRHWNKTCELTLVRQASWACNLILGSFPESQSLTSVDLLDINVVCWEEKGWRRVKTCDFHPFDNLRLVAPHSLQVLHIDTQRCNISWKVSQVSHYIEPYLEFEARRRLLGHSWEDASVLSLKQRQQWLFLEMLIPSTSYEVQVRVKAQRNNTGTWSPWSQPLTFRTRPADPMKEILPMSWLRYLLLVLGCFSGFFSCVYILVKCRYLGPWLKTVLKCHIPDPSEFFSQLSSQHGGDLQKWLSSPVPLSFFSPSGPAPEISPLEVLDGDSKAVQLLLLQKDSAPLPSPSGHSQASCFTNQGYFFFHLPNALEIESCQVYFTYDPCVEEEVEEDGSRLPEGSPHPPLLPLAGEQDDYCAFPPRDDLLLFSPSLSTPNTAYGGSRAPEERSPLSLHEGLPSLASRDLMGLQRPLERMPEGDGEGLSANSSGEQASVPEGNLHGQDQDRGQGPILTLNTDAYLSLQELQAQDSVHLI
T1 sequence (looked up) 2: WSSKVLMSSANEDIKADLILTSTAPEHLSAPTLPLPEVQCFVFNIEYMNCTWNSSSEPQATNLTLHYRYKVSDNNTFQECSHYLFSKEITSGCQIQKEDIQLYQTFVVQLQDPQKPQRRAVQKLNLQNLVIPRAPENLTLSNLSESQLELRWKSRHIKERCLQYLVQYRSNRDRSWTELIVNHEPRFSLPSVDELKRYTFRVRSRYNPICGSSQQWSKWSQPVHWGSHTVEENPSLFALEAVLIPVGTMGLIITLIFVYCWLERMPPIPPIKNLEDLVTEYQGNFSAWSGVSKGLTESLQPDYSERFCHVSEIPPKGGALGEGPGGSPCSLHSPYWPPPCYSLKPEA

[2] = target: T2, IL-2 receptor βγ complex (human, UniProt P14784 27-551; P31785 23-369); assay: cell-based or functional assay
T2 sequence (looked up) 1: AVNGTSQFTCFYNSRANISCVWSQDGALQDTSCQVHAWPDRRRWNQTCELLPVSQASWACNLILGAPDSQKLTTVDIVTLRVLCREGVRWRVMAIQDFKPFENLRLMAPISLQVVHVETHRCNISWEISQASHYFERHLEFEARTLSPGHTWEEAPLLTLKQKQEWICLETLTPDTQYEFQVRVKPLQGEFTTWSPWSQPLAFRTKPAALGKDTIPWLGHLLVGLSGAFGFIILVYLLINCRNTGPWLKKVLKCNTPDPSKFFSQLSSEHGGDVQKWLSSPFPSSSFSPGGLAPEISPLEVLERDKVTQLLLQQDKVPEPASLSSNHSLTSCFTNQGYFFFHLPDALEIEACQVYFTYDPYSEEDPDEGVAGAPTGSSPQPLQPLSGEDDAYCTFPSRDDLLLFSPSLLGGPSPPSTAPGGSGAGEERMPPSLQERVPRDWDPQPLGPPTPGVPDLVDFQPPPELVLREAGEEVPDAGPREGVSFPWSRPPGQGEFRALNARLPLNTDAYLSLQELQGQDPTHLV
T2 sequence (looked up) 2: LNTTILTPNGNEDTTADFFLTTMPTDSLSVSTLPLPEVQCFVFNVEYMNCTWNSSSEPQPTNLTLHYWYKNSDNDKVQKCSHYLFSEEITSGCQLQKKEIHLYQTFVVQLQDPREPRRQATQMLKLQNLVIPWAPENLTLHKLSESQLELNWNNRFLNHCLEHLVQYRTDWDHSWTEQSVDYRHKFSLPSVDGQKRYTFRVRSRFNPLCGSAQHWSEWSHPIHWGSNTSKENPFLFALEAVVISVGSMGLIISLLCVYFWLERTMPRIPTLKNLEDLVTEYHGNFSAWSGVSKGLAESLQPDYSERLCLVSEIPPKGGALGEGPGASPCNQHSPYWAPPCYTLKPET

[3] = target: T2, IL-2 receptor βγ complex; assay: cell-based or functional assay; remark: listed apart in the source
[4] = target: T3, Avi-tag Fc with human IL-2R beta and IL-2R gamma attached (Acrobiosystems ACRB-ILG-H82F3-25UG) (human, UniProt P14784 27-239; P31785 23-262); assay: BLI (Octet R8), receptor on SAX2 sensor
T3 construct: Bought; attached to the SAX2 biosensor; also called CD122 CD132; IL-2R βγ; not shown: Fc and Avi-tag
T3 sequence (looked up) 1: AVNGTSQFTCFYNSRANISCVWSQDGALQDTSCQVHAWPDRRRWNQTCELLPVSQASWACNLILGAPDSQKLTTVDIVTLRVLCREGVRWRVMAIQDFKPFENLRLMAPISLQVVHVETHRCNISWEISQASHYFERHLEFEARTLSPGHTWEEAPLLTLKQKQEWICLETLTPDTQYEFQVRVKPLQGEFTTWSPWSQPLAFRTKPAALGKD
T3 sequence (looked up) 2: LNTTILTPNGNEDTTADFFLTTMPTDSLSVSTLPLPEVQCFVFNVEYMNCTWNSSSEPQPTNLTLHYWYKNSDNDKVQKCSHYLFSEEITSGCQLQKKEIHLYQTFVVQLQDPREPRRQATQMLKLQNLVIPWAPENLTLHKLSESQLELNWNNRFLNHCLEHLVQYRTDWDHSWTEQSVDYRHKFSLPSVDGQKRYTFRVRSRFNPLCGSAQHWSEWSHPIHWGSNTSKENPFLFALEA
Protocol: (§1) Bilayer interferometry (BLI) assays were used to measure the binding constants between activatable IL-2 polypeptides (and activated versions thereof) to IL-2 receptor subunits or receptor complexes. BLI assays were conducted on an Octet® R8 instrument. Assay plates were 96 well, polypropylene, F-bottom (chimney well), black microplates (Greiner Bio-one, Cat. No: 655209). The biosensors were Octet® SAX2 (Sartorius, Cat. No: 18-5136). The assay buffer was 1X Kinetic Buffer (Sartorius, Cat. no: 18-5136) or Phosphate Buffered Saline (PBS) that contained 0.02% (v: v) Tween 20 (Polysorbate 20) and 0.1% (w/v) bovine serum albumin (BSA). The sensor was regenerated between measurements in 10 mM glycine pH 2.7 buffer.
(§2) Sensor attached receptors were either recombinant human IL-2 receptor beta containing a His-tag and Avi-tag™ (R&D Systems™) or an Avi-tag™ Fc with human IL-2R beta and IL-2R gamma attached (Acrobiosystems Cat. no: ACRB-ILG-H₈₂F3-25UG). Receptors were reconstituted from lyophilized powder to 500 μg/ml in PBS. Analytes were diluted in Kinetic buffer to 300 nM, then serially diluted to lower concentrations.

[5] = target: T4, recombinant human IL-2 receptor beta containing a His-tag and Avi-tag (human, UniProt P14784 27-239); assay: BLI (Octet R8), receptor on SAX2 sensor; construct CMP-145, not MMP2-treated
T4 construct: Bought; attached to the SAX2 biosensor; also called CD122; IL-2R β; not shown: His-tag and Avi-tag
T4 sequence (looked up): T3 sequence (looked up) 1
Protocol: as §1, §2

[6] = target: T3, Avi-tag Fc with human IL-2R beta and …; assay: as above
Protocol: as §1, §2

[7] = target: T5, IL-2 receptor βγ complex on human T cells (human, UniProt P14784 27-551; P31785 23-369); assay: cell-based or functional assay
T5 sequence (looked up) 1: T2 sequence (looked up) 1
T5 sequence (looked up) 2: T2 sequence (looked up) 2

B2: CMP-003, MMP2 treated (ligand)
chain: APTSSSTKKTQLQLEHLLLDLQ[Nle]ILNGINNYKNPKLTR[Nle]L[hSer][Yn3]KF[Ygp][Nle]PKKATELKHLQCLEEELKPLEEVL[hSer]LAQSKNFHLRPRDLISNINVIVLELKGSETTF[hSer]CEYADETATIVEFLNRWITFSQSIISTLT
modifications: ends and bridges not checked
Average EC50, pSTAT5 Assay in mouse splenocytes [1]: 45.7 nM

B3: CMP-138, MMP2 cleaved molecule (ligand)
chain: APTSSSTKKTQLQLEHLLLDLQ[Nle]ILNGIENYKNPKLTR[Nle]L[hSer][Yn3]KF[Ygp][Nle]PKKATELKHLQCLEEELKPLEEVL[hSer]LAQSKNFHLRPRDLISNINVIVLELKGSETTF[hSer]CEYADETATIVEFLNRWITFSQSIISTLT
modifications: ends and bridges not checked; also: cleaved by MMP2, cleavage product not defined, N-terminal PEG4 link and Glu29 side-chain attachment of the cleavable peptide not defined
Average EC50, pSTAT5 Assay in NK cells [2]: 0.288 nM
Average EC50, pSTAT5 Assay in mouse splenocytes [1]: 75.1 nM
Average EC50, pSTAT5 Assay (T cells) [3]: 2.32 nM

B4: CMP-145, MMP2 cleaved molecule (ligand)
chain: APTSSSTKKTQLQLEHLLLDLQKILNGINNYKNPKLTR[Nle]L[hSer][Yn3]KF[Ygp][Nle]PKKATELKHLQCLEEELKPLEEVL[hSer]LAQSKNFHLRPRDLISNINVIVLELKGSETTF[hSer]CEYADETATIVEFLNRWITFSQSIISTLT
modifications: ends and bridges not checked; also: Lys23 side chain attached to another sequence (cleavable peptide), cut by MMP2, product not given here
Average EC50, pSTAT5 Assay in NK cells [2]: 82 pM and 0.246 nM
Average EC50, pSTAT5 Assay in mouse splenocytes [1]: 55.2 nM

B5: CMP-145 (ligand)
chain: APTSSSTKKTQLQLEHLLLDLQKILNGINNYKNPKLTR[Nle]L[hSer][Yn3(3)]KF[Ygp(3)][Nle]PKKATELKHLQCLEEELKPLEEVL[hSer]LAQSKNFHLRPRDLISNINVIVLELKGSETTF[hSer]CEYADETATIVEFLNRWITFSQSIISTLT
modifications: also: Lys23 side chain attached to another sequence (not given here)
notes: Synthetic IL-2 polypeptide, tested intact
koff [4]: 0.00117 s⁻¹
Kd [5]: 1830 nM
Kd [6]: 10.2 nM

B8: CMP-151, MMP2 cleaved molecule (ligand)
chain: APTSSSTKKTQLQLEHLLLDLQKILNGINNYKNPKLTR[Nle]L[hSer][Yn3″]KF[Ygp″][Nle]PKKATELKHLQCLEEELKPLEEVL[hSer]LAQSKNFHLRPRDLISNINVIVLELKGSETTF[hSer]CEYADETATIVEFLNRWITFSQSIISTLT
modifications: not fully specified; also: cleaved by MMP2, cleavage product not defined, N-terminal glutaryl-PEG9 link and Lys23 side-chain attachment not defined
Average EC50, pSTAT5 Assay in NK cells [2]: 0.352 nM
Average EC50, pSTAT5 Assay in mouse splenocytes [1]: 89.2 nM
Average EC50, pSTAT5 Assay (T cells) [3]: 1.81 nM

Continued, values first:

Average EC50, pSTAT5 Assay in mouse splenocytes [1]: 24 nM
B1: CMP-003 (ligand)
chain: APTSSSTKKTQLQLEHLLLDLQ[Nle]ILNGINNYKNPKLTR[Nle]L[hSer][Yn3]KF[Ygp][Nle]PKKATELKHLQCLEEELKPLEEVL[hSer]LAQSKNFHLRPRDLISNINVIVLELKGSETTF[hSer]CEYADETATIVEFLNRWITFSQSIISTLT
modifications: ends and bridges not checked

Average EC50, pSTAT5 Assay (T cells), intact molecule [7]: 66.8 nM
B6: CMP-130 (ligand)
chain: APTSSSTKKTQLQLE[Dab]LLLDLQ[Nle]ILNGINNYKNPKLTR[Nle]L[hSer][Yn3(7)]KF[Ygp(7)][Nle]PKKATELKHLQCLEEELKPLEEVL[hSer]LAQSKNFHLRPRDLISNINVIVLELKGSETTF[hSer]CEYADETATIVEFLNRWITFSQSIISTLT
modifications: ends and bridges not checked

Average EC50, pSTAT5 Assay in NK cells [2]: 0.277 nM
Average EC50, pSTAT5 Assay in mouse splenocytes [1]: 84.7 nM
Average EC50, pSTAT5 Assay (T cells) [3]: 2.4 nM
B7: CMP-136, MMP2 cleaved molecule (ligand)
chain: APTSSSTKKTQLQLEHLLLDLQ[Nle]ILNGIENYKNPKLTR[Nle]L[hSer][Yn3]KF[Ygp][Nle]PKKATELKHLQCLEEELKPLEEVL[hSer]LAQSKNFHLRPRDLISNINVIVLELKGSETTF[hSer]CEYADETATIVEFLNRWITFSQSIISTLT
modifications: ends and bridges not checked; also: cleaved by MMP2, cleavage product not defined, N-terminal PEG9 link and Glu29 side-chain attachment of the cleavable peptide not defined
